# Results reported in the supplement of paper PMC12042874.
# ± gives the uncertainty stated by the source.
# Experiment: amyloid nucleation score (Sup35N fusion, yeast selection) (log enrichment); library NNK3; higher = more nucleation; inactive = no reads after selection
# In short: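 The nucleation score equals the log enrichment of output over input reads from DiMSum, centred on the mode score of non-aggregating sequences. It was computed only for sequences with 100 or more input reads. The reads came from Illumina sequencing of plasmid inserts from psi-negative yeast expressing Sup35N fused to peptides of 20 random codons, induced with 100 μM copper sulfate for 24 hours and grown 7 days at 30°C without adenine and uracil.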
row,Substance,amyloid nucleation score
1,LWYVDTGAIILG,inactive
2,LRFGHHMGYEWHLSRKVGSK,inactive
3,WRRGFVNSRGYNLRFWGHYF,inactive
4,FFYEPGVPRFYFQLFLLLSF,inactive
5,GMNYNKMRTVLSRAPPRVRS,inactive
6,VTVSSWASYIIVNGKWRIKC,inactive
7,IPYKHIHRMPFFYHWQQRFG,inactive
8,YHYQDNMS,inactive
9,AVYGVFRRRS,inactive
10,GMADKVDTCLWLMFY,inactive
11,KGSSSSIDTIFLYRGYFSIA,inactive
12,IRTFIIQADSSVVPIKVFYR,1.55 ± 0.099
13,FSSVGRDDYCNGLM,inactive
14,YLFRVTLNVALILMLSSRCE,inactive
15,QLLLKT,inactive
16,YRYYFRSEVPEDKEDDGYLL,inactive
17,VCTVQCFEKIEL,inactive
18,VIVKKLY,inactive
19,IKCVCFLCPNQ,1.02 ± 0.19
20,NDMFRVSCSQNSESQYNLNG,inactive
21,FVTVVGGLRWNVTFSERWSV,0.081 ± 0.61
22,RLRRLCYSSGELDALGLCVW,0.261 ± 0.42
23,CFRAGVIFIWGVHNSYYRTS,2.23 ± 0.082
24,YSLFWCNNNVRGGKASMWYR,inactive

row,Substance,amyloid nucleation score
1,RLLFSATFSRNFISCTKSSS,inactive
2,LHAWAVVLGFLETP,inactive
3,YEIHWSRRKGMWFEYYTFHF,inactive
4,WSYNITK,inactive
5,SKPYYYMVYIESEVVVYLFG,inactive
6,VPGCA,-0.075 ± 1.1
7,QHALCSTAIRILLSV,inactive
8,DALIRY,inactive
9,WNRAVCIMSNIWIMDLPVLK,inactive
10,RVMRMLSIVWFRWNEIVIFL,inactive
11,TILSPMASSQNKCDKNPMLS,1.19 ± 0.073
12,NNIFWMRFMFDPWRR,1.04 ± 0.21
13,EAFSSHKNFNVTCFPK,1.77 ± 0.11
14,VSNVSGSIHWGNFCAMNIAV,inactive
15,KPSFDPFKN,inactive
16,YSALRFSKSCGRPCCVYNSF,inactive
17,DNKSL,inactive
18,EFYGVVSRVPYERTPGTKVE,inactive
19,AHRRKLKWDNGHCNLRTKFR,inactive
20,VNISVRQALHANYVGTCFVC,1.85 ± 0.084
21,WYFGCSALYQL,1.49 ± 0.099
22,NWVAKMGFVHGSSKRYSPPK,0.111 ± 0.61
23,DRIGVQ,inactive
24,KEAVFIFSTHSGFLALFCMM,inactive

row,Substance,amyloid nucleation score
1,IRVSVVRSICMQSGRCEYQA,1.21 ± 0.15
2,FEETIINFCRYLFMMFTGVV,1.87 ± 0.1
3,FHVVFCDID,inactive
4,NLPLYPSGFFKSMIRNRVLT,1.66 ± 0.083
5,VIDVFSRDLSMLIFSFGHMK,1.12 ± 0.089
6,APRGVSTDLDAVHRWYYSGR,-0.025 ± 0.88
7,FCRCKLFFAGCF,1.08 ± 0.13
8,PRVFGRVTSRMFLDFVLNF,0.982 ± 0.14
9,LSLNLRYHQPVNWNSRDTCL,1.31 ± 0.12
10,VRTNPGGFWLNLCQQTQKES,inactive
11,MRAIMWFINKDLLLTCGDDS,inactive
12,KGYSKCEDPMLECYYCTPVN,inactive
13,FRVHLFFGKWRVVVCTR,inactive
14,SIEMQYNDMRLR,inactive
15,FVKCFNGAFWNEGPFCYLCG,0.331 ± 0.32
16,TTDGFRVRSTLYNYICVWRY,inactive
17,RRYGYNLVTL,inactive
18,SFKNNL,inactive
19,FNKDINRPYKCKAH,inactive
20,IYVQNSTANKR,inactive
21,ISFLADYRQPSVKFVGGYVM,inactive
22,ETGLLFGWDRVSSYWGVLKT,inactive
23,GWMQGVLSELTTTLVMESAR,inactive
24,WAIGQLYFMRILV,inactive

row,Substance,amyloid nucleation score
1,WPIIGTLNRTSGSDR,inactive
2,RVPIYVHKI,inactive
3,DYNSCCSEREVGKKEYTKNN,inactive
4,SMKQMNMQHSSPRNRTDGRR,inactive
5,LVTDGMRRSEICLMVYSN,inactive
6,WNPYAIARKAIVRGSVKWGV,inactive
7,SRFLLRNCPFLSGHVFTSQT,inactive
8,DCYMDLSRQFRNRCGLASFY,inactive
9,MGYLMRALGHCSY,inactive
10,GRGHGEGTRLASSTIVIMHV,-0.395 ± 0.61
11,LVHLEVGQGSSVVEHLRCVL,inactive
12,CVDCRGESAHLLIARWFMRR,0.387 ± 0.38
13,LLFDDKCYGLVVDNYRYANI,inactive
14,ASTRNVGYRVT,inactive
15,FISWMLAR,0.9 ± 0.12
16,NVVSWGHDLYGKKAPALWEV,inactive
17,SSWNTTYMESSVPVGYLFRI,inactive
18,KPASAGLVINAVGSGHSEMW,inactive
19,NNQCKACSLWWQSSYPDKMF,inactive
20,QTSRT,inactive
21,GLSMLGGLNDSRTCSLVSNV,inactive
22,DVRMLRLMVRELYC,inactive
23,YSYHS,inactive
24,TWGCYLLISNI,inactive

row,Substance,amyloid nucleation score
1,SKRFSLGI,inactive
2,TCHIRKWSEGWLKYMDCRSP,inactive
3,TCLQVSTFFVQASKSLYLPI,0.953 ± 0.11
4,SMPRAEHSDVSCYAHYFSFR,inactive
5,IASSSWHVMIWYSPRSCVFS,inactive
6,NMVHCVLCIAHEHLKVFVMC,inactive
7,PVLLIRSKFDQRRAWSFHTV,inactive
8,PSHIGLL,inactive
9,FNVYFGAIVFKEDLPCSYSA,1.23 ± 0.12
10,GFSLFYYL,inactive
11,GIAIDREKVVPIRGYLWSVT,inactive
12,LPSICVSPI,inactive
13,VMRFYQPSTASLYGSLASPR,inactive
14,MSELWWAPSFKYQLFSHFIK,inactive
15,ILPGL,inactive
16,QYVSSTFHV,inactive
17,GFAGMLYDLLPFGNWSLPSH,-0.127 ± 0.75
18,GSCCNQG,inactive
19,PKISFSGWM,inactive
20,TNRRN,inactive
21,YIPGGFRNFGMV,inactive
22,VWYVSLTMIWLGSMALGFAR,inactive
23,VYRFGMVLRNVHLFRLLIGG,inactive
